The values that follow come from paper PMC11479587, “Early steps of protein disaggregation by Hsp70 chaperone and class B J-domain proteins are shaped by Hsp110” (eLife, 2024).

T1: His6-SUMO-Sse1 (yeast (S. cerevisiae), UniProt P32589 1-693)
T1 construct: Sse1, yeast Hsp110 nucleotide exchange factor, Uniprot ID P32589; Held on the Ni-NTA BLI sensor through the His6-SUMO tag; also called His-Sse1; His-See1; source: recombinant, purified as Sse1 with the proteolytic cleavage of the tag omitted
T1 sequence (looked up): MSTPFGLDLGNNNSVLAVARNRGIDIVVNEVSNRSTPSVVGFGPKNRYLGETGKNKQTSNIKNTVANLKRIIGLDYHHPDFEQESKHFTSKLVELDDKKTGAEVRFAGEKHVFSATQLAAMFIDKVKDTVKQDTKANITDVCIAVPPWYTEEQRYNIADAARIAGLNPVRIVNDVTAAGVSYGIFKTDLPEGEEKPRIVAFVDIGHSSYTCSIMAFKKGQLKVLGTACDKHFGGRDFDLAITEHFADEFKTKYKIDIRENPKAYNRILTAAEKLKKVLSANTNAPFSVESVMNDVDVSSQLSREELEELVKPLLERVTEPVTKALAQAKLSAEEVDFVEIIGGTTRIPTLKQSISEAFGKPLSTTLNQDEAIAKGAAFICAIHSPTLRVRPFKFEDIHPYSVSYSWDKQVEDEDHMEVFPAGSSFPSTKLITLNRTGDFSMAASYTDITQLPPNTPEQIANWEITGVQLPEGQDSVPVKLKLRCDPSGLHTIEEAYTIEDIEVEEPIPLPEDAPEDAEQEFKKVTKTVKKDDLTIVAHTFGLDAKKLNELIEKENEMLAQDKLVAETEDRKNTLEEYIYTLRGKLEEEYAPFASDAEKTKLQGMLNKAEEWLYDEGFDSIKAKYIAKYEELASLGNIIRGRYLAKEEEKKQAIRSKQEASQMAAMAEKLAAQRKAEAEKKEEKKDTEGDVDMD

B1: Sse1 (natural protein, yeast (S. cerevisiae), UniProt P32589 1-693, looked up)
chain: T1 sequence (looked up)
B2: Sis1 immobilised through the His6-SUMO tag (natural protein, yeast (S. cerevisiae), UniProt P25294 1-352, looked up)
chain: MVKETKLYDLLGVSPSANEQELKKGYRKAALKYHPDKPTGDTEKFKEISEAFEILNDPQKREIYDQYGLEAARSGGPSFGPGGPGGAGGAGGFPGGAGGFSGGHAFSNEDAFNIFSQFFGGSSPFGGADDSGFSFSSYPSGGGAGMGGMPGGMGGMHGGMGGMPGGFRSASSSPTYPEEETVQVNLPVSLEDLFVGKKKSFKIGRKGPHGASEKTQIDIQLKPGWKAGTKITYKNQGDYNPQTGRRKTLQFVIQEKSHPNFKRDGDDLIYTLPLSFKESLLGFSKTIQTIDGRTLPLSRVQPVQPSQTSTYPGQGMPTPKNPSQRGNLIVKYKVDYPISLNDAQKRAIDENF
notes: Sis1, yeast class B J-domain protein, Uniprot ID P25294; also called His-Sis1; class B JDP
B3: Ssa1 (natural protein)
chain: not shown
notes: Ssa1, yeast Hsp70 chaperone, Uniprot ID P10591; also called Hsp70; yeast Hsp70; source: recombinant, expressed from pCA533-His6-SUMO-SSA1, purified using published protocols (Andréasson et al., 2008a)

Assay [1] concerns the target B3. Put plainly: cell-based or functional assay.
For assay [2], the target named is B3. Kind of assay: BLI; His-Sis1 (0.4 µM, to saturation) on the Ni-NTA sensor through the His6-SUMO tag; 1 µM Ssa1 with increasing concentrations of Sse1 or Sse1-2; buffer A with 5 mM ATP and 2 mM DTT. The note with it: both partners purified. For orientation: In BLI a coated tip is dipped into the sample, and binding shifts an interference pattern.
The assay “Sse1” has as its target B1. Described as above. The note with it: both partners purified.
A further assay deals with T1, His6-SUMO-Sse1. Put plainly: BLI; His-Sse1 (2.5 µM) or His-Sse1-2 (1 µM) on the Ni-NTA sensor through the His6-SUMO tag; Ssa1 at 32-16,000 nM; level of binding fitted with a one site-specific binding model; buffer A with 5 mM ATP and 2 mM DTT. The note with it: both partners purified.

Chain of Ssa1 (P10591 whole entry): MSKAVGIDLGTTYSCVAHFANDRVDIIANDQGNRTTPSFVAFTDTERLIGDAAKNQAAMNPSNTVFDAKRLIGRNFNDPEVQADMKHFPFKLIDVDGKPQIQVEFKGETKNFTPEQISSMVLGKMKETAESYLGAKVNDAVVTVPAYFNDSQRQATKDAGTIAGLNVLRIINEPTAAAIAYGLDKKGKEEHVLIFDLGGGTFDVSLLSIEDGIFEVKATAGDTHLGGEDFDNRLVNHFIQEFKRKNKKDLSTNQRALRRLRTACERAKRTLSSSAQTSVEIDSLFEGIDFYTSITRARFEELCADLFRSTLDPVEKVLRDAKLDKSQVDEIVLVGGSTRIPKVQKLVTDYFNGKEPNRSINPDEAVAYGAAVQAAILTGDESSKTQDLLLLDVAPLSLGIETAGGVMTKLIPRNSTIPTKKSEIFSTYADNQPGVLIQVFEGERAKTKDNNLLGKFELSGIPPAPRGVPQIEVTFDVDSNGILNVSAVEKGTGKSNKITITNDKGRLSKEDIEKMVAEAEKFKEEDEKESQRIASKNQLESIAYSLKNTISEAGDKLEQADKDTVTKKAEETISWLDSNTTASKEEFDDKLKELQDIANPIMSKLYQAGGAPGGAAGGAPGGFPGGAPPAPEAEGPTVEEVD

Regarding B1, the “inhibition of the refolding of aggregated luciferase by Ssa1-Ydj1 (1 µM each), titration of Sse1, activity after 1 hr” value in the assay with Ssa1 [1] is 0.1 µM.

B2: in the assay with Ssa1 [2], the binding result is reported as “binds”. For the molecule B3, the binding result with Sse1 and with His6-SUMO-Sse1 was “binds” in each case.
